According to patent publication US9645151B2, “Targeting phosphofructokinase and its glycosylation form for cancer” (California Institute of Technology, priority 2012, dated 2017):
Residue numbers refer to the chain shown, from its start. Names may count otherwise.

What was measured:
PFK1 [1] = molecular target: T1, PFK1 (Homo sapiens, UniProt P17858); experiment: PFK1 oligomerization by native gel electrophoresis; details: 50 nM F-2,6-BP, 50° C. for 30 min (FIG. 21)
T1 construct: made in house
T1 sequence (P17858 1-780): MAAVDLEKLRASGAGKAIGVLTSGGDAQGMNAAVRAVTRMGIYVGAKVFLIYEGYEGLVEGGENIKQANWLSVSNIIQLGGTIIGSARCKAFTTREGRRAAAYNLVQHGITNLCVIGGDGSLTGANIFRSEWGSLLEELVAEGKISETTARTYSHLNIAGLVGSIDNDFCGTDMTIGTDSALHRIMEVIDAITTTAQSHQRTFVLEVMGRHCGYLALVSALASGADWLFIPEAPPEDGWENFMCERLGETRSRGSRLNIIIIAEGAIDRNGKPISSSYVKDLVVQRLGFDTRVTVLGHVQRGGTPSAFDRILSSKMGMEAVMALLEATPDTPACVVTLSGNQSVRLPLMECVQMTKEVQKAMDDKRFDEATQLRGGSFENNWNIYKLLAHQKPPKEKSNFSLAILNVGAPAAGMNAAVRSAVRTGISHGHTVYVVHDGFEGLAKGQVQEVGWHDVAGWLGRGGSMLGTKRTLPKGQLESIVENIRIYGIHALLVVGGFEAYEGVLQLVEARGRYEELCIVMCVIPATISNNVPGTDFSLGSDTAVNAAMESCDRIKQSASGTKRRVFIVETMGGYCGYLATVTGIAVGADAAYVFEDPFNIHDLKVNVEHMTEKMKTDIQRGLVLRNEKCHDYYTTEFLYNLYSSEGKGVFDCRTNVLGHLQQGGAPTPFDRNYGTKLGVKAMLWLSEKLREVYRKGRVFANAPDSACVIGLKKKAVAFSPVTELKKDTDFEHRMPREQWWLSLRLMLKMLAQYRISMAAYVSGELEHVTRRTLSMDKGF
Procedure: Flag-tagged PFK1 (L isoform) was transiently expressed in 293T cells with or without co-expression of HA-tagged OGT. After 36 h, Flag-tagged PFK1 was isolated from the lysate using Flag M2 immunoaffinity resin and eluted with a 3 Å˜Flag peptide as described above. The eluent was concentrated using Amicon Ultra Centrifugal Filters (10-kD molecular weight cutoff). Similarly, 293T cells expressing Flag-tagged PFK1 were treated with PUGNAc (100 μM, 12 h) or cultured under hypoxic conditions (0.5% O2, 5% CO2, and 94.5% N2) at 37° C. for 24 h, before protein isolation. As a control, heat treatment of PFK1 in the presence or absence of 50 nM F-2,6-BP was performed at 50° C. for 30 min. The proteins were then subjected to native gel electrophoresis (Bio-Rad) and visualized by Coomassie blue staining as described above.

[2] = system: H1299, A549, or 293T cells; experiment: Cell viability by trypan blue exclusion after PUGNAc treatment; format: cell-based, human; details: PUGNAc 100 μM for 9 h
PFK1 [3] = experiment: Analysis of PFK1 glycosylation (chemoenzymatic labeling, immunoblot); format: cell-based, human; details: 293T cells (FIG. 14)
Procedure: To carry out chemoenzymatic labeling and biotinylation of proteins in cell lysates, cell lines and tissues were first lysed in lysis buffer (1% SDS, 50 mM Tris-HCl, pH 7.5, 100 mM NaCl, 10 μM PUGNAc, and Complete™ protease inhibitors (Roche)). The cell lysate (400 μg) was then labeled according to the Click-iT O-GlcNAc Enzymatic Labeling System protocol (Invitrogen) and conjugated with an alkyne-biotin compound as per the Click-iT Protein Analysis Detection Kit protocol (Invitrogen). Control experiments were carried out in parallel in the absence of the labeling enzyme GalT. […] To quantify the percentage of glycosylation, the intensity of the band eluted from resin (the glycosylated protein fraction) and the band from the input (the total protein) were measured. […] The percentage of glycosylation on Flag-tagged PFK1 was determined by using an antibody to Flag. To quantify the percentage of glycosylation, the intensity of the PEG-shifted band (the glycosylated protein fraction) and the unshifted band (the non-glycosylated protein fraction) were measured and the ratio of the intensity of the glycosylated protein fraction over the intensity of the total protein (glycosylated protein fraction plus non-glycosylated protein fraction) was taken as the glycosylation stoichiometry.

PFK1 [4] = molecular target: T2, PFK1 (Homo sapiens, UniProt P17858); experiment: PFK1 enzymatic assay; format: biochemical
T2 construct: made in house
T2 sequence (P17858 2-780): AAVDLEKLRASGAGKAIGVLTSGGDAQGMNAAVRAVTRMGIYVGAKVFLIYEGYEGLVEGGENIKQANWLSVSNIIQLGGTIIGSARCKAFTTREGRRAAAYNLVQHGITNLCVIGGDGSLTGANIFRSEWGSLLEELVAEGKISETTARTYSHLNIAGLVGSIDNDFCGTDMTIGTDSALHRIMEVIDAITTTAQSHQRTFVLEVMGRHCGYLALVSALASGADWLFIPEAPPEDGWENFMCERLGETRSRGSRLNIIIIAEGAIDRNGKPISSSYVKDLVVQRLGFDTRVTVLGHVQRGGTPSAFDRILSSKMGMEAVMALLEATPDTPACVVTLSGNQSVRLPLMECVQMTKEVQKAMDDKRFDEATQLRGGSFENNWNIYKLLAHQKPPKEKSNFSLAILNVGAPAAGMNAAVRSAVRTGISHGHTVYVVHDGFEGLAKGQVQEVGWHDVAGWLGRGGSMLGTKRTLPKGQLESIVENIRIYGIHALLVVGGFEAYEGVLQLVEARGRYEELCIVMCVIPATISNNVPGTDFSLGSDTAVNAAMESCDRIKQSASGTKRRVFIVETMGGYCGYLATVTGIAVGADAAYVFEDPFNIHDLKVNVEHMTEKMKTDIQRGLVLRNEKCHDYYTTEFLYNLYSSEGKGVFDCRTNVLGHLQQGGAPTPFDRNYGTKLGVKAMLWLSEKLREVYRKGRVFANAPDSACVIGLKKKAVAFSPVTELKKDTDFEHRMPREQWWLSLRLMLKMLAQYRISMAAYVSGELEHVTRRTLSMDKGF
Procedure: In order to measure PFK1 activity, a reaction was performed using either cell lysate (20 μg) or recombinant purified PFK1 (0.1 μg) in 1 ml of reaction buffer containing 50 mM Tris-HCl pH 7.5, 100 mM KCl, 5 mM MgCl2, 1 mM ATP, 0.2 mM NADH, 5 mM Na2HPO4, 0.1 mM AMP, 1 mM NH4Cl, 5 mM fructose-6-phosphate, 5 U of triose phosphate isomerase (Sigma-Aldrich), 1 U of aldolase (Sigma-Aldrich) and 1 U of α-glycerophosphate dehydrogenase (Sigma-Aldrich). Absorbance was recorded at 340 nm at room temperature every 15 s for 10 min using a Uvikon UV-Vis spectrophotometer (Research Instruments International). One unit of PFK1 activity is defined as the amount of enzyme that catalyzes the conversion of 1 μmol of fructose-6-phosphate to fructose-1,6-bisphosphate per min.
In order to determine the activation of PFK1 by F-2,6-BP (Sigma-Aldrich) over the indicated concentrations, reactions were performed in similar buffer conditions as described above except that an inhibitory concentration of ATP (3 mM) was used. […]
293T cells were transiently transfected with Flag-tagged PFKL, Myc-tagged PFKP, or Myc-tagged PFKM. […] Glycosylation levels were analyzed by chemoenzymatic labeling with a 5-kD mass tag, and PFK1 activities were measured on the purified proteins as described above.

## O=P(O)(O)OC[C@H]1O[C@@](CO)(OP(=O)(O)O)[C@@H](O)[C@@H]1O [F-2,6-BP, fructose-2,6-bisphosphate]
PFK1 [1]
  rescue of reduction of PFK1 oligomerization state by heat denaturation: partial rescue

## CC(=O)N[C@H]1/C(=N/OC(=O)Nc2ccccc2)O[C@H](CO)[C@@H](O)[C@@H]1O [PUGNAc, O-(2-acetamido-2-deoxy-D-glucopyranosylidene) amino Nphenylcarbamate]
[2]
  effect on cell viability: did not affect cell viability

B1: S529A PFK1: modified PFK-1 polypeptide with serine to alanine substitution at position 529 (SEQ ID NO: 2) (protein)
chain: T1 sequence (P17858 1-780) with S529A
PFK1 [3]
  glycosylation of PFK1 mutant: abolished
PFK1 [4]; 3 mM ATP (FIG. 19)
  PFK1 activity versus F-2,6-BP concentration: impaired at lower F-2,6-BP concentrations
PFK1 [4]; expressed in 293T cells, hypoxic vs normoxic (FIG. 2A)
  PFK1 activity under hypoxia: not significantly changed
